Laboratory results: patent US20110091480A1 (published 2011)

Experiments:
[1] = target: T1, ORF0657n-H/y (SEQ ID NO: 3) (S. aureus, UniProt A6QG30 42-609); assay: Western blot (dot blot confirmed by Western)
T1 construct: also called Yeast expressed ORF0657n-H/y antigen

[2] = target: T2, ORF0657t (ORF0657n fragment from amino acid 42 to amino acid 486 of SEQ ID NO: 1) (S. aureus, UniProt A5IS15 42-486); assay: SPR Biacore 3000, IgG captured as ligand, ORF0657t as analyte
T2 construct: also called ORFO657t

[3] = target: T3, ORF0657t CNBr fragment [001-323] (Band 35 kDa) (S. aureus, UniProt A5IS15 42-363); assay: Western blot of CNBr cleavage products of ORF0657t with 2H2 mAb
T3 construct: also called 35 kDa band
T3 sequence: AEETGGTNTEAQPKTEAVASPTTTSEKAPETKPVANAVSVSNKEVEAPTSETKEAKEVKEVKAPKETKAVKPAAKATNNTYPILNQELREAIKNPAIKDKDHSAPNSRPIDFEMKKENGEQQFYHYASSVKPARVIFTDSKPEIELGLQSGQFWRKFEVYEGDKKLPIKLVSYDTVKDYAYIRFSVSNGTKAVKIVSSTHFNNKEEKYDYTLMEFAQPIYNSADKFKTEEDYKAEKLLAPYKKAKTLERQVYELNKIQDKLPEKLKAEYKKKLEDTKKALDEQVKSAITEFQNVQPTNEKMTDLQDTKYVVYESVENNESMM

[4] = target: T4, ORF0657t CNBr fragment [114-214] (Band 10 kDa) (S. aureus, UniProt A5IS15 154-254); assay: Western blot of CNBr cleavage products of ORF0657t with 2H2 mAb (Band 10 kDa)
T4 construct: also called 10 kDa band
T4 sequence: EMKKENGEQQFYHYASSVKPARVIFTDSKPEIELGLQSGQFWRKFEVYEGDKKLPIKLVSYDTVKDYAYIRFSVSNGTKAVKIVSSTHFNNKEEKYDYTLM

[5] = target: T5, ORF0657t CNBr fragment [215-302] (Band 10 kDa) (S. aureus, UniProt A5IS15 255-342); assay: as above
T5 construct: also called 10 kDa band
T5 sequence: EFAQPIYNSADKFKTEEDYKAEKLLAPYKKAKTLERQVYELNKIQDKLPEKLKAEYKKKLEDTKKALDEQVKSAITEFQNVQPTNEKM

[6] = target: T6, ORF0657t CNBr fragment [357-446] (Band 10 kDa) (S. aureus, UniProt A5IS15 397-486); assay: as above
T6 construct: also called 10 kDa band

[7] = target: T7, ORF0657t CNBr fragment [215-356] (Band 15 kDa) (S. aureus, UniProt A5IS15 255-396); assay: Western blot of CNBr cleavage products of ORF0657t with 2H2 mAb (Band 15 kDa)
T7 construct: also called 15 kDa band

[8] = target: T8, ORF0657t CNBr fragment [303-446] (Band 15 kDa) (S. aureus, UniProt A5IS15 343-486); assay: as above
T8 construct: also called 15 kDa band

[9] = target: T9, ORF0657t CNBr fragment [001-214] (Band 25 kDa) (S. aureus, UniProt A5IS15 42-254); assay: Western blot of CNBr cleavage products of ORF0657t with 2H2 mAb (Band 25 kDa)
T9 construct: also called 25 kDa band
T9 sequence: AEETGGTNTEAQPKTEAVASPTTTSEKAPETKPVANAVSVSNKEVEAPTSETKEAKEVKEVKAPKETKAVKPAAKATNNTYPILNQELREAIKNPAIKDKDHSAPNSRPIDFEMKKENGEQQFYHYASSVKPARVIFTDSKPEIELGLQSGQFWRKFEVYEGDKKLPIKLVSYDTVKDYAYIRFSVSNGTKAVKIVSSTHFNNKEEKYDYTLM

[10] = target: T10, ORF0657t CNBr fragment [116-302] (Band 25 kDa) (S. aureus, UniProt A5IS15 156-342); assay: as above
T10 construct: also called 25 kDa band
T10 sequence: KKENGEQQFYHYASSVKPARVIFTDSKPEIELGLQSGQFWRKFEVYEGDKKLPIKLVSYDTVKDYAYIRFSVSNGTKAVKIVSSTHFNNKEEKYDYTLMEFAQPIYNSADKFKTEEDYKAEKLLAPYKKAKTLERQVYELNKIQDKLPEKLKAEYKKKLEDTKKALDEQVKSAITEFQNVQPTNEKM

[11] = target: T2, ORF0657t (ORF0657n fragment from amino …); assay: SPR Biacore 3000, ORF0657t bound to the surface, antibody fragment as analyte

T6 sequence (A5IS15 397-486): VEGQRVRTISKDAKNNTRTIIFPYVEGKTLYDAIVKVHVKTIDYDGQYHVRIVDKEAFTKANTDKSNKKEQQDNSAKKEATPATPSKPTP
T1 sequence (A6QG30 42-609, tags left off): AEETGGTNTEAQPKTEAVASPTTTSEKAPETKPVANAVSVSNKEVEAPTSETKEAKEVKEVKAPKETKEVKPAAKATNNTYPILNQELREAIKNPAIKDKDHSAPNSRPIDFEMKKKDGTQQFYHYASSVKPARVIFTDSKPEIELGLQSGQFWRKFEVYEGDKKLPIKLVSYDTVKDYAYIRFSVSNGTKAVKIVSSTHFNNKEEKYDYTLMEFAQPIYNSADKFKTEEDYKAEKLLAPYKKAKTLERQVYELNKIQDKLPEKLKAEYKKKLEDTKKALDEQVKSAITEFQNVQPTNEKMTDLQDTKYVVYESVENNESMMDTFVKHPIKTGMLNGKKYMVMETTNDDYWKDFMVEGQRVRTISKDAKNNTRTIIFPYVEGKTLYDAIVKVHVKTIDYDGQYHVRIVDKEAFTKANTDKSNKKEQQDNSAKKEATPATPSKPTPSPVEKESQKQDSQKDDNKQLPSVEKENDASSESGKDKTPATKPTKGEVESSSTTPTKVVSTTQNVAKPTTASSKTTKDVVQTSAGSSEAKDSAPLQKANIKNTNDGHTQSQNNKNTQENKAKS
T8 sequence (A5IS15 343-486): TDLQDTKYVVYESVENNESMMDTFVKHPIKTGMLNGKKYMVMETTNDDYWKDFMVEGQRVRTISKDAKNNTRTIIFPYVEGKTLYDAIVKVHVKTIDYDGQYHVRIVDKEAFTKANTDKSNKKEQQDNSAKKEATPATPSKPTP

B1: mAb 2H2.B8 (antibody, V domains shown)
VH: DVHLVESGPGLVAPSQNLSITCTVSGFSLSRYGVHWVRQPPGKGLEWLGLIWAGGVTIYNSTLMSRLSISKDSSKSQVFLKMNSLQIDDTAIYYCAREASRDHYFDYWGQGTTLTVSS
VL: DIVMTQSPAIMSASPGEKITMTCSASSSVSYIYWYQQKSGTSPKRWIYDTSKLASGVPFRFSGGGSGTSFSLTISSMEAEDAATYYCQQWSSNPLTFGAGTKLEIKR
notes: also called 2H2.B8 (IgG1)
binding result [1]: binds

B2: mAb 2H2.BE11 (antibody, V domains shown)
VH: B1 VH
VL: B1 VL
notes: also called 2H2.BE11 (IgG2b); 2H2 mAb
Kd [2]: 33 nM
koff [2]: 0.00201 s⁻¹
kon [2]: 61000 M⁻¹ s⁻¹
binding result [3]: no binding
binding result [4]: no binding
binding result [5]: no binding
binding result [6]: no binding
binding result [7]: no binding
binding result [8]: no binding
binding result [9]: no binding
binding result [10]: no binding

B3: 2H2 IgG chimera (antibody, V domains shown)
VH: B1 VH
VL: B1 VL
notes: also called chimeric antibody; Mouse 2H2 Variable and Human IgG1 / Human Kappa Constant Region
Kd [2]: 25 nM
koff [2]: 0.00273 s⁻¹
kon [2]: 110000 M⁻¹ s⁻¹

B4: 2H2 scAb (scFv)
scFv: DIVMTQSPAIMSASPGEKITMTCSASSSVSYIYWYQQKSGTSPKRWIYDTSKLASGVPFRFSGGGSGTSFSLTISSMEAEDAATYYCQQWSSNPLTFGAGTKLEIKRGGGGSGGGGSGGGGSGGGGSDVHLVESGPGLVAPSQNLSITCTVSGFSLSRYGVHWVRQPPGKGLEWLGLIWAGGVTIYNSTLMSRLSISKDSSKSQVFLKMNSLQIDDTAIYYCAREASRDHYFDYWGQGTTLTVSSRTVAAPSVFIFPPSDEQLKSGTASVVCLLNNFYPREAKVQWKVDNALQSGNSQESVTEQDSKDSTYSLSSTLTLSKADYEKHKVYACEVTHQGLSSPVTKSFNRGEC
notes: domain: human kappa light chain constant domain; also called 2H2 clone; scFv with a Human Kappa chain tag
Kd [11]: 39 nM
koff [11]: 0.00191 s⁻¹
kon [11]: 49100 M⁻¹ s⁻¹
